The values that follow come from PMC8939794.

In the test the target is His6-Tagged vimentin (Novus Biologicals) (UniProt P08670). Briefly: MST; His6-vimentin labelled with RED-tris-NTA 2nd Generation dye, kept at 20 nM; V-domain protein titrated from 40 uM to 0.117 uM; premium capillaries, Monolith NT.115 Pico, 20% excitation power; 'estimated' Kd.
UniProt P08670, sequence (P08670 whole entry): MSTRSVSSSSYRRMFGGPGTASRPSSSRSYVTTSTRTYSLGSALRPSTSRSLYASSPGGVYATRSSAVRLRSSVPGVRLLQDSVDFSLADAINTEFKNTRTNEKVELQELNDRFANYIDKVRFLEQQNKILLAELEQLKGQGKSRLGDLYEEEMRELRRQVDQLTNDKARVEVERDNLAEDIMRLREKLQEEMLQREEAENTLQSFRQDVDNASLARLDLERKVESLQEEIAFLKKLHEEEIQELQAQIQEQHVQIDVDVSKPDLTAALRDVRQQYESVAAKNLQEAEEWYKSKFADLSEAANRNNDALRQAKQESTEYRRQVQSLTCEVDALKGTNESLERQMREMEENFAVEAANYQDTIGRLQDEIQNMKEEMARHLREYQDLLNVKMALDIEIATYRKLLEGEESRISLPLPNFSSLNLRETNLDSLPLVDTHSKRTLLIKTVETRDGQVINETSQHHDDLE

As to “BspC Gating Loop Mutant (GLM) V-domain, A250P/A259P (domain or fragment)”, the Kd (in general, the free concentration of one partner at which half of the binding sites on the other are occupied at equilibrium, for simple one-to-one binding) is 41.9 µM.
Regarding “BspC V-domain (variable domain of Group B streptococcal surface protein C, strain COH1) (domain or fragment)”, the Kd is 7.14 µM.
